Test results from patent publication US8791061B2, “Peptides for treating and preventing immune-related disorders, including treating and preventing infection by modulating innate immunity” (Soligenix, Inc., priority 2005, dated 2014).
“Also recorded” adds a separate entry of the source. Where no end group is shown, it is not given here. [ ]: non-standard residue; d: D form. Orn = NCCC[C@H](N)C(=O)O

Each substance was assayed on S. aureus 25923 (assay: Prophylactic in vivo protection, peptide before IP S. aureus infection of mice). Conditions: mice; peptide IP 24 hours prior to infection, 12 mg/kg (SEQ 1), 11.5 mg/kg (SEQ 5); 24 hours post-infection.
Procedure: Twenty-four hours prior to infection, peptide was administered at 12 mg/kg (SEQ. ID. NO. 1, FIG. 3A) and 11.5 mg/kg (SEQ. ID. No. 5, FIG. 3B), via IP injection. Mice were then infected with S. aureus 25923 via IP injection. Twenty-four hours post-infection, surviving animals were sacrificed and intraperitoneal lavage fluid was plated to determine residual bacterial counts (# colony forming units per ml (CFU/ml)) in the presence and absence of peptide treatment.
Dead animals were assigned the highest bacterial count of any animal in the study. The peptides of SEQ. ID.

For “1 (KSRIVP; IMMUNOLOGICAL PEPTIDE) [compound 1]”, the “protection (residual bacterial counts CFU/ml in intraperitoneal lavage fluid)” value was “clearly demonstrated protection”.
“5 (RIVPA; IMMUNOLOGICAL PEPTIDE) [compound 5]” was tested, and the “protection (residual bacterial counts CFU/ml in intraperitoneal lavage fluid)” value was “clearly demonstrated protection”.

Same assay, conditions: prophylactic peptide IP; control 2 mice dead

Point of comparison: “5 (RIVPA; IMMUNOLOGICAL PEPTIDE) [compound 5]”, “mouse dead (peptide treatment)” value 0. Against it:
- 1 (KSRIVP; IMMUNOLOGICAL PEPTIDE) [compound 1] — the same, 0

Each substance was assayed on S. aureus 25923 (assay: In vivo protection, mice infected IP with S. aureus, peptide after infection). Conditions: peptide IP 4 hours after infection, 9-24 mg/kg depending on peptide, 24 hours post-infection, vs control.
Procedure: Mice were infected with S. aureus 25923 via intraperitoneal (IP) injection. Four hours later, the peptide of SEQ ID NOs:1, 4, 5, 6, 45, and 47 were administered at 12 mg/kg and 24 mg/kg for SEQ. ID. NO. 1 (FIGS. 2A and 2B), 9.6 mg/kg for SEQ. ID. NO. 5 (FIG. 2C), 13 mg/kg for SEQ. ID. NO. 47 (FIG. 2D), 12 mg/kg for SEQ. ID. NO. 4 (FIG. 2E), 9 mg/kg for SEQ. ID. NO. 6 (FIG. 2F), and 13 mg/kg for SEQ. ID. NO. 45 (FIG. 2G), via IP injection. Twenty-four hours post-infection, surviving animals were sacrificed, and intraperitoneal lavage fluid was plated to determine residual bacterial counts (# colony forming units per ml (CFU/ml)) in the presence and absence of peptide treatment.
Dead animals were assigned the highest bacterial count of any animal in the study.

In the case of “1 (KSRIVP; IMMUNOLOGICAL PEPTIDE) [compound 1]”, the “protection (residual bacterial counts CFU/ml in intraperitoneal lavage fluid)” value is reported as “clearly demonstrated protection”.
“4 (SRIVP; IMMUNOLOGICAL PEPTIDE) [compound 4]” was tested, and the “protection (residual bacterial counts CFU/ml in intraperitoneal lavage fluid)” value was “clearly demonstrated protection”.
For “5 (RIVPA; IMMUNOLOGICAL PEPTIDE) [compound 5]”, the “protection (residual bacterial counts CFU/ml in intraperitoneal lavage fluid)” value was “clearly demonstrated protection”.
In the case of “6 (KIVPA; IMMUNOLOGICAL PEPTIDE) [compound 6]”, the “protection (residual bacterial counts CFU/ml in intraperitoneal lavage fluid)” value is reported as “clearly demonstrated protection”.
In the case of “45 (KPARVPS; IMMUNOLOGICAL PEPTIDE) [compound 45]”, the “protection (residual bacterial counts CFU/ml in intraperitoneal lavage fluid)” value is reported as “clearly demonstrated protection”.
“47 (KPRAVP; IMMUNOLOGICAL PEPTIDE) [compound 47]” was tested, and the “protection (residual bacterial counts CFU/ml in intraperitoneal lavage fluid)” value was “clearly demonstrated protection”.

These substances were tested on S. aureus 25923 (assay: Non-antimicrobial activity, WST-1 colorimetric bacterial viability assay). Conditions: peptide 200 μM, 2 hours growth, compared with erythromycin 120 μg/ml.
Type: cell-based
Procedure: Bacteria (S. aureus 25923) were seeded into wells containing peptide (200 μM), vehicle (Tris), or antibiotic (erythromycin; 120 μg/ml). The bacteria were allowed to grow for 2 hours. Thereafter, bacterial viability was determined utilizing a WST-1 colorimetric viability assay (catalogue number 1 644 807; Roche Diagnostics). DMEM and DMEM+WST-1 were included as background controls.

With “1 (KSRIVP; IMMUNOLOGICAL PEPTIDE) [compound 1]” the “antimicrobial activity (bacterial viability)” value (“antimicrobial activity” below) was “lacked antimicrobial activity”.
With “5 (RIVPA; IMMUNOLOGICAL PEPTIDE) [compound 5]” the “antimicrobial activity” value was “lack of activity; also recorded: lacked antimicrobial activity”.
With “47 (KPRAVP; IMMUNOLOGICAL PEPTIDE) [compound 47]” the “antimicrobial activity” value was “lack of activity; also recorded: lacked antimicrobial activity”.

What follows are substances tested against T1, DPPIV (Mus musculus, UniProt P28843) (assay: Plasma DPPIV activity assay with mouse blood). Conditions: peptide 0.82 mM in mouse blood, 2 h at 37° C.; relative to saline control set to 100%.
T1 construct: The plasma was transferred to a 96-well assay plate for the DPPIV assay; from tissue; host or cells: pooled heparinized whole blood of ICR mice; plasma isolated after incubation
Type: biochemical
Procedure: Mouse blood was obtained by cardiac puncture from ICR mice and collected in heparinized blood collection tubes. Blood from several mice was pooled and aliquoted into […]. The peptide was dissolved in acetate buffered saline, pH 5.5, to a concentration of 9 mM. Of this stock solution 30 μL were added to 300 μL of blood and mixed by resuspension (concentration in blood 0.82 mM). For the control, 30 μL of blank acetate buffered saline was added to 300 μL of blood. Each peptide group was prepared in triplicate, whereas the control was prepared in six replicates. The samples were incubated at 37° C. in closed microtubes for two hours. After incubation the plasma was isolated from the samples by centrifugation at 4000 rcf. The plasma was transferred to a 96-well assay plate for the DPPIV assay. The assay was started by adding 5 μL of the DPPIV substrate gly-pro-p-nitroanilide (16 mM in de-ionized water) to 95 μl of plasma (concentration in plasma 0.8 mM) and the increase in UV absorbance (405 nm) was monitored over a 20 min time period. The rate of the production of p-nitroaniline by enzymatic cleavage of gly-pro-p-nitroanilide was taken as the activity of DPPIV (Durinx C et al., (2001) “Reference values for plasma dipeptidyl-peptidase IV activity and their association with other laboratory parameters”. Clin Chem Lab Med. 39(2):155-9.)
The effect of the peptides on the activity of DPPIV was observed. Results are presented as normalized, averaged % activity relative to saline control (set to 100%). Anything less than 100% activity represents a reduction in DPPIV activity.
In one aspect of the invention, a reduction by of DPPIV activity by about, or in one embodiment, at least, 25% (i.e. to about 75%+/−5%) was deemed to be active. A person skilled in the art would appreciate that the desired level of activity may vary depending on the use of the peptides.

T1 sequence (P28843 37-760 limits assumed): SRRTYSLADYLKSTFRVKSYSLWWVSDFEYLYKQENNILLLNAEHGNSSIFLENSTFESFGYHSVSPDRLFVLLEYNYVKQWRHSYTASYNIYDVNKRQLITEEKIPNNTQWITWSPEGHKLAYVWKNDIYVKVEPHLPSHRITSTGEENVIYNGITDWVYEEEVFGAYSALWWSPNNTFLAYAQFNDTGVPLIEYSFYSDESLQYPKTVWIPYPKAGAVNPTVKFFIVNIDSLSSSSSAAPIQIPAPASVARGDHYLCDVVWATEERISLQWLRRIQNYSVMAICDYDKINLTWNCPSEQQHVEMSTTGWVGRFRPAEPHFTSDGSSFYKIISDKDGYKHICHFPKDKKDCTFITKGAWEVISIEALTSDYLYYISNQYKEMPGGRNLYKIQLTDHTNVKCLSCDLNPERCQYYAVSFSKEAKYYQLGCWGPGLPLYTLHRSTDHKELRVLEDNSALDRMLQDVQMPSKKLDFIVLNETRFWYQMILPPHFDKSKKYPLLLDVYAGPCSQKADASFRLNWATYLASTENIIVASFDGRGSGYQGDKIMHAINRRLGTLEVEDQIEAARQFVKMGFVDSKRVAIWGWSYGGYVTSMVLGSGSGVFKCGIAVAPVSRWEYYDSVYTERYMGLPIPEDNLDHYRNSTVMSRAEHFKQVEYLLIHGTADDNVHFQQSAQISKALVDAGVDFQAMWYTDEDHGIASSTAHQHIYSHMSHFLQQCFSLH

Point of comparison: 22 (RIVPG-NH2) [compound 22], “% DPPIV Activity (Saline)” value 61%. Against it:
- 1 (KSRIVP; IMMUNOLOGICAL PEPTIDE) [compound 1] — higher, 76%
- 3 (SRIVPA; IMMUNOLOGICAL PEPTIDE) [compound 3] — lower, 60%
- 4 (SRIVP; IMMUNOLOGICAL PEPTIDE) [compound 4] — higher, 64%
- 5 (RIVPA; IMMUNOLOGICAL PEPTIDE) [compound 5] — higher, 66%
- 6 (KIVPA; IMMUNOLOGICAL PEPTIDE) [compound 6] — higher, 64%
- 8 (RVPA; IMMUNOLOGICAL PEPTIDE) [compound 8] — higher, 64%
- 9 (RIPA; IMMUNOLOGICAL PEPTIDE) [compound 9] — lower, 51%
- 11 (RAVPA; IMMUNOLOGICAL PEPTIDE) [compound 11] — lower, 39%
- 12 (RRIVPA; IMMUNOLOGICAL PEPTIDE) [compound 12] — the same, 61%
- 13 (RKVPA-NH2) [compound 13] — lower, 50%
- 14 (RIVPK-NH2) [compound 14] — higher, 67%
- 15 (RPVPA-NH2) [compound 15] — lower, 27%
- 16 (RIPPA-NH2) [compound 16] — higher, 66%
- 17 (RIVPP-NH2) [compound 17] — higher, 82%
- 18 (RIVPGGA-NH2) [compound 18] — higher, 65%
- 19 (GGIVPA-NH2) [compound 19] — higher, 70%
- 20 (GIVPA-NH2) [compound 20] — higher, 73%
- 21 (RGVPA-NH2) [compound 21] — higher, 64%
- 23 (RIVPS-NH2) [compound 23] — higher, 62%
- 24 (RIVPL-NH2) [compound 24] — higher, 74%
- 25 (RHVPA-NH2) [compound 25] — lower, 38%
- 26 (RIPVA-NH2) [compound 26] — lower, −4%
- 27 (RVIPA-NH2) [compound 27] — higher, 67%
- 28 (RIIPA-NH2) [compound 28] — lower, 20%
- 29 (AVPIR-NH2) [compound 29] — lower, 0%
- 30 (APVIR-NH2) [compound 30] — lower, 36%
- 35 (RIVPF-NH2) [compound 35] — higher, 77%
- 37 (RLVPA-NH2) [compound 37] — lower, 39%
- 38 (HIVPA-NH2) [compound 38] — lower, 47%
- 40 (ARVPA-NH2) [compound 40] — higher, 68%
- 41 (IRVPA-NH2) [compound 41] — lower, 49%
- 43 (SIVPA-NH2) [compound 43] — higher, 80%
- 45 (KPARVPS; IMMUNOLOGICAL PEPTIDE) [compound 45] — lower, 27%
- 46 (RVPSLL-NH2) [compound 46] — higher, 70%
- 47 (KPRAVP; IMMUNOLOGICAL PEPTIDE) [compound 47] — lower, 52%
- 49 (IRVP-NH2) [compound 49] — lower, 56%
- 50 (RVPS-NH2) [compound 50] — lower, 59%
- 51 (Arg-Val-Pro-NH2) [compound 51] — higher, 70%
- 52 (PSVPGS-NH2) [compound 52] — higher, 74%
- 53 (GLKHPS-NH2) [compound 53] — higher, 68%
- 54 (RIVPAIPVSLL-NH2) [compound 54] — lower, 4%
- 61 (RIVPAC-NH2) [compound 61] — lower, 52%
- 62 ([code r][code r]VP-NH2) [compound 62] — lower, 51%
- 64 (RIVPPA-NH2) [compound 64] — higher, 74%
- 65 (RIGPA-NH2) [compound 65] — higher, 77%
- 70 (RIHPA-NH2) [compound 70] — lower, 37%
- 71 (RIWPA-NH2) [compound 71] — higher, 78%
- 72 (RIVPW-NH2) [compound 72] — higher, 71%
- 73 (SPVIRH-NH2) [compound 73] — higher, 66%
- 74 (CPVIRH-NH2) [compound 74] — lower, 45%
- 75 (RIEPA; IMMUNOLOGICAL PEPTIDE) [compound 75] — higher, 79%
- 76 (RIVPE-NH2) [compound 76] — higher, 69%
- 77 (RIVPH-NH2) [compound 77] — lower, 53%
- 78 (RSVPA-NH2) [compound 78] — higher, 75%
- 80 (KVIPS-NH2) [compound 80] — lower, 30%
- 81 (KVVPS-NH2) [compound 81] — lower, 57%
- 82 (KPRP-NH2) [compound 82] — lower, 52%
- 83 (Arg-Ile-Pro-NH2) [compound 83] — lower, 47%
- 84 ([Orn]-Val-Pro-NH2; N-terminus assumed; SMILES CC(C)[C@H](NC(=O)[C@@H](N)CCCN)C(=O)N1CCC[C@H]1C(N)=O) [compound 84] — higher, 79%
- 85 (Ser-Val-Pro-NH2) [compound 85] — higher, 71%
- 86 (Lys-Val-Pro-NH2) [compound 86] — lower, 49%
- 87 (Arg-Arg-Pro-NH2) [compound 87] — higher, 72%
- 88 (Gly-Val-Pro-NH2) [compound 88] — higher, 69%
- 89 (Lys-His-Pro-NH2) [compound 89] — higher, 72%
- 90 (RIVPA[dY]-NH2) [compound 90] — lower, 59%
